Tests used:
[1] = system: CSC[C@H]1O[C@@H](n2cnc3c(N)ncnc32)[C@H](O)[C@@H]1O; assay: purified protein; conditions: phosphate
[2] = system: Nc1ncnc2c1ncn2[C@@H]1O[C@H](CO)[C@@H](O)[C@H]1O; assay: purified protein; conditions: phosphate
[3] = target: Rv0535 (M. tuberculosis methylthioadenosine phosphorylase, MTAP) (Mycobacterium tuberculosis, UniProt O06401); assay: HPLC cleavage assay at […]; format: biochemical
Chain of Rv0535 (M. tuberculosis methylthioadenosine phosphorylase, MTAP) (O06401 whole entry): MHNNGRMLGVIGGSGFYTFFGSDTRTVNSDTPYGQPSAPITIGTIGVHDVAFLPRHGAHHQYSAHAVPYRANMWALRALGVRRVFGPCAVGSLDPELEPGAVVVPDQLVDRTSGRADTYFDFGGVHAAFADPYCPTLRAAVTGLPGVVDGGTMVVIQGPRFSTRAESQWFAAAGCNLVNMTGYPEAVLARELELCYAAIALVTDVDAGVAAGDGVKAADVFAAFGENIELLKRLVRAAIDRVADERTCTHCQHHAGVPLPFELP

## Rv0535 (M. tuberculosis methylthioadenosine phosphorylase, MTAP) (Mycobacterium tuberculosis H37Rv)
[1]
  kcat: 0.4 ± 0.2 s⁻¹
[2]
  Km: 1700 ± 200 µM

## Nc1ncnc2c1ncn2[C@@H]1O[C@H](CSCC[C@H](N)C(=O)O)[C@@H](O)[C@H]1O [S-Adenosyl-L-homocysteine]
[3]
  Enzyme Activity (nmoles mg^-1 hr^-1) ^a: 800 ± 100 nmol/mg/h

Source: publication PMC3288397 (2012)
